Test results as given in PMC9245664 (Proceedings of the National Academy of Sciences of the …, 2022).
Positions count from the first letter of the chain named.

Key:
Test in all cases: NMR titration
[1] = target: T1, Wzc_(CDΔC,ΔCys) (Cys544Ser/Cys563Ser) (E. coli (K-12), UniProt P76387 447-704, Cys544Ser | Cys563Ser)
T1 sequence: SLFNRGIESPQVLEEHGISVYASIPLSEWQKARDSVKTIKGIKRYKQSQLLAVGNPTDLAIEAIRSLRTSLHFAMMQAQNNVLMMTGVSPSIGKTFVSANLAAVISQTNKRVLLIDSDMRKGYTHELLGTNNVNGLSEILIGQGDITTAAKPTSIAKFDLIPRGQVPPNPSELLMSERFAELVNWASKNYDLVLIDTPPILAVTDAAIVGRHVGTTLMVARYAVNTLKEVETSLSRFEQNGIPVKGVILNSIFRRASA

[2] = target: T2, Wzc_(CDΔC,ΔCys,Val466Cys) (E. coli (K-12), UniProt P76387 447-704, Cys544Ser | Cys563Ser | Val466Cys)
T2 sequence: T1 sequence with V20C

[3] = target: T3, Wzc_(CDΔC,ΔCys,Leu505Cys) (E. coli (K-12), UniProt P76387 447-704, Cys544Ser | Cys563Ser | Leu505Cys)
T3 sequence: T1 sequence with L59C

[4] = target: T4, Wzc_(CDΔC,ΔCys,Ser516Cys) (E. coli (K-12), UniProt P76387 447-704, Cys544Ser | Cys563Ser | Ser516Cys)
T4 sequence: T1 sequence with S70C

[5] = target: T5, Wzc_(CDΔC,ΔCys,Gln523Cys) (E. coli (K-12), UniProt P76387 447-704, Cys544Ser | Cys563Ser | Gln523Cys)
T5 sequence: T1 sequence with Q77C

[6] = target: T6, Wzc_(CDΔC,ΔCys,Lys556Cys) (E. coli (K-12), UniProt P76387 447-704, Cys544Ser | Cys563Ser | Lys556Cys)
T6 sequence: T1 sequence with K110C

B1: full-length E. coli (K-12) Wzb, wild type (enzyme)
chain: MFNNILVVCVGNICRSPTAERLLQRYHPELKVESAGLGALVGKGADPTAISVAAEHQLSLEGHCARQISRRLCRNYDLILTMEKRHIERLCEMAPEMRGKVMLFGHWDNECEIPDPYRKSRETFAAVYTLLERSARQWAQALNAEQV
Kd [1]: 15.2 ± 0.6 µM | Kd [2]: 8.9 ± 0.3 µM | Kd [3]: 43.8 ± 1.3 µM | Kd [4]: 11.3 ± 0.7 µM | Kd [5]: 16.9 ± 0.5 µM | Kd [6]: 7.3 ± 0.4 µM
